In paper PMC4218952 one finds co-immunoprecipitation after 10 mM glutamate, relative to untreated (fold of untreated) data, which are given here for one substance.

This assay concerns the target Myc-GluK2a (UniProt Q13002). Put plainly: co-IP; HEK293T cells transfected with FLAG-parkin and Myc-GluK2a or its truncation mutants; 500 ug lysate, Myc, parkin or FLAG antibody overnight at 4 C, Protein A or G agarose, washes with 500 mM NaCl, 1% Triton X-100; also after activation with 10 mM glutamate.
Sequence of UniProt Q13002 (Q13002 32-908): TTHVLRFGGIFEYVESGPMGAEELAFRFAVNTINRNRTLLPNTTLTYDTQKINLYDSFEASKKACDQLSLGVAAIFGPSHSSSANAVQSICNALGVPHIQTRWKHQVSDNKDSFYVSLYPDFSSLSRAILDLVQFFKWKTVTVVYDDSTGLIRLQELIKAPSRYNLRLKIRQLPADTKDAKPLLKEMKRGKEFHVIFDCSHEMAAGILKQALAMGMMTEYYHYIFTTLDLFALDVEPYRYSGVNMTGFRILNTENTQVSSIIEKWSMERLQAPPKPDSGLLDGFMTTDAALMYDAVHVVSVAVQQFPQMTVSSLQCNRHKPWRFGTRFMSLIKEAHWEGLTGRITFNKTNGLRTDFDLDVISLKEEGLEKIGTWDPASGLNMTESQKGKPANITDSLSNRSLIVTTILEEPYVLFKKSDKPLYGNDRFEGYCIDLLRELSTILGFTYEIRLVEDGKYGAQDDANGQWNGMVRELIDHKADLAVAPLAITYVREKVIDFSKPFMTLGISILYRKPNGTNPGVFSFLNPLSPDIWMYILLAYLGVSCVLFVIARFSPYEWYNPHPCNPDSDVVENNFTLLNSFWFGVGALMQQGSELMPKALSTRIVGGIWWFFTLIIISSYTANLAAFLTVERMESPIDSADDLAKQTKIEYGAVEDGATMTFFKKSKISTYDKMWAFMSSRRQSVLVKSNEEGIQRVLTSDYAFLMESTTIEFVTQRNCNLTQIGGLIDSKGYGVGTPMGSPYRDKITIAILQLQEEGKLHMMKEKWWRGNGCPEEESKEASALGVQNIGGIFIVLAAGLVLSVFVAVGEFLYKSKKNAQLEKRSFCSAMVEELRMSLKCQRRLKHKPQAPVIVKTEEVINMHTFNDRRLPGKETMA

Sequence of FLAG-parkin (O60260 whole entry, the tested form may be a part): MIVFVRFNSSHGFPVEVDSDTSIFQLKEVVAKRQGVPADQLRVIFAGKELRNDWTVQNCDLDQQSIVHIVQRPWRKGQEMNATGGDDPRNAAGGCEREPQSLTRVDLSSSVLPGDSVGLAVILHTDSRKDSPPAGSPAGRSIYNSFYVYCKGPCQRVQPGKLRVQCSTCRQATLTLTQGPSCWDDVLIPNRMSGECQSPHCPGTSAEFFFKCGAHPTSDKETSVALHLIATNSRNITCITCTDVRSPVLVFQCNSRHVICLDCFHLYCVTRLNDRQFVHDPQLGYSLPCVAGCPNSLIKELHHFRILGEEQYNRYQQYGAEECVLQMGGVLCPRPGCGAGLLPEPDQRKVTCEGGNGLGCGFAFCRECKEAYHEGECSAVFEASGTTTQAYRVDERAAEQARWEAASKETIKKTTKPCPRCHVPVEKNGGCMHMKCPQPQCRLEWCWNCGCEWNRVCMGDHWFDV

With “FLAG-parkin (from UniProt O60260 1-465) (enzyme)”, the co-immunoprecipitation after 10 mM glutamate, relative to untreated (fold of untreated) amounted to 2.7.
